Measured values published in US20180155450A1 (Sanofi, published 2018).

Assays:
recombinant human IL4 = target: T1, recombinant human IL4 (human, UniProt P05112 25-153); assay: SPR (Biacore 3000), captured CODV-Ig, antigen as analyte;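 also: kd derived from kinetic fits in BIAevaluation 4.1, with signals referenced against a flow cell lacking captured antibody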
T1 construct: bought; also called Antigen1
T1 sequence (looked up): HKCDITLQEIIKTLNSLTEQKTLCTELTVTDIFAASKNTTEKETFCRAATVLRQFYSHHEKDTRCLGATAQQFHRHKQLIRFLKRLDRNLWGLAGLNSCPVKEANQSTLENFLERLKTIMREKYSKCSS
Experimental: (§1) Kinetic binding analysis by Biacore was performed as follows. Surface plasmon resonance technology on a Biacore 3000 (GE Healthcare) was used for detailed kinetic characterization of purified antibodies. […] Chip surfaces were regenerated with 10 mM glycine pH 2.5. Kinetic parameters were analyzed and calculated in the BIAevaluation program package v4.1 using a flow cell without captured antibody as a reference.

recombinant human IL13 = target: T2, recombinant human IL13 (human, UniProt P35225 35-146, limits assumed); assay: as above
T2 construct: bought; also called Antigen2
T2 sequence (P35225 35-146 limits assumed): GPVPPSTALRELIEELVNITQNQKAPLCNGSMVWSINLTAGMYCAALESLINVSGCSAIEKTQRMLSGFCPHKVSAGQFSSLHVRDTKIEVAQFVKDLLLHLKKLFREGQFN
Experimental: as §1

B1: CODV-Ig Batch ID 209 (IL4 × IL13 on HC; L1=7, L2=3, L3=2, L4=0) (bispecific antibody)
chain 1: not shown
chain 2: DIVLTQSPASLAVSLGQRATISCRASESVDSYGQSYMHWYQQKAGQPPKLLIYLASNLESGVPARFSGSGSRTDFTLTIDPVQAEDAATYYCQQNAEDSRTFGGGTKLEIKGGGGGGGDIQMTQSPASLSVSVGDTITLTCHASQNIDVWLSWFQQKPGNIPKLLIYKASNLHTGVPSRFSGSGSGTGFTLTISSLQPEDIATYYCQQAHSYPFTFGGGTKLEIKGGGRTVAAPSVFIFPPSDEQLKSGTASVVCLLNNFYPREAKVQWKVDNALQSGNSQESVTEQDSKDSTYSLSSTLTLSKADYEKHKVYACEVTHQGLSSPVTKSFNRGEC
- Kd (recombinant human IL4): 5 pM
- Kd (recombinant human IL13): 47 pM

B2: CODV-Ig Batch ID 213 (IL4 × IL13 on HC; L1=5, L2=3, L3=2, L4=2) (bispecific antibody)
chain 1: not shown
chain 2: DIVLTQSPASLAVSLGQRATISCRASESVDSYGQSYMHWYQQKAGQPPKLLIYLASNLESGVPARFSGSGSRTDFTLTIDPVQAEDAATYYCQQNAEDSRTFGGGTKLEIKGGGGGDIQMTQSPASLSVSVGDTITLTCHASQNIDVWLSWFQQKPGNIPKLLIYKASNLHTGVPSRFSGSGSGTGFTLTISSLQPEDIATYYCQQAHSYPFTFGGGTKLEIKGGGRTVAAPSVFIFPPSDEQLKSGTASVVCLLNNFYPREAKVQWKVDNALQSGNSQESVTEQDSKDSTYSLSSTLTLSKADYEKHKVYACEVTHQGLSSPVTKSFNRGEC
- Kd (recombinant human IL4): 5 pM
- Kd (recombinant human IL13): 27 pM

B3: CODV-Ig Batch ID 214 (IL4 × IL13 on HC; L1=5, L2=5, L3=2, L4=2) (bispecific antibody)
chain 1: not shown
chain 2: DIVLTQSPASLAVSLGQRATISCRASESVDSYGQSYMHWYQQKAGQPPKLLIYLASNLESGVPARFSGSGSRTDFTLTIDPVQAEDAATYYCQQNAEDSRTFGGGTKLEIKGGGGGDIQMTQSPASLSVSVGDTITLTCHASQNIDVWLSWFQQKPGNIPKLLIYKASNLHTGVPSRFSGSGSGTGFTLTISSLQPEDIATYYCQQAHSYPFTFGGGTKLEIKGGGGGRTVAAPSVFIFPPSDEQLKSGTASVVCLLNNFYPREAKVQWKVDNALQSGNSQESVTEQDSKDSTYSLSSTLTLSKADYEKHKVYACEVTHQGLSSPVTKSFNRGEC
- Kd (recombinant human IL4): 10 pM
- Kd (recombinant human IL13): 53 pM

B4: CODV-Ig Batch ID 215 (IL4 × IL13 on HC; L1=7, L2=3, L3=2, L4=2) (bispecific antibody)
chain 1: not shown
chain 2: DIVLTQSPASLAVSLGQRATISCRASESVDSYGQSYMHWYQQKAGQPPKLLIYLASNLESGVPARFSGSGSRTDFTLTIDPVQAEDAATYYCQQNAEDSRTFGGGTKLEIKGGGGGGGDIQMTQSPASLSVSVGDTITLTCHASQNIDVWLSWFQQKPGNIPKLLIYKASNLHTGVPSRFSGSGSGTGFTLTISSLQPEDIATYYCQQAHSYPFTFGGGTKLEIKGGGRTVAAPSVFIFPPSDEQLKSGTASVVCLLNNFYPREAKVQWKVDNALQSGNSQESVTEQDSKDSTYSLSSTLTLSKADYEKHKVYACEVTHQGLSSPVTKSFNRGEC
- Kd (recombinant human IL4): 4 pM
- Kd (recombinant human IL13): 50 pM

B5: CODV-Ig Batch ID 216 (IL4 × IL13 on HC; L1=7, L2=5, L3=2, L4=2) (bispecific antibody)
chain 1: not shown
chain 2: DIVLTQSPASLAVSLGQRATISCRASESVDSYGQSYMHWYQQKAGQPPKLLIYLASNLESGVPARFSGSGSRTDFTLTIDPVQAEDAATYYCQQNAEDSRTFGGGTKLEIKGGGGGGGDIQMTQSPASLSVSVGDTITLTCHASQNIDVWLSWFQQKPGNIPKLLIYKASNLHTGVPSRFSGSGSGTGFTLTISSLQPEDIATYYCQQAHSYPFTFGGGTKLEIKGGGGGRTVAAPSVFIFPPSDEQLKSGTASVVCLLNNFYPREAKVQWKVDNALQSGNSQESVTEQDSKDSTYSLSSTLTLSKADYEKHKVYACEVTHQGLSSPVTKSFNRGEC
- Kd (recombinant human IL4): 11 pM
- Kd (recombinant human IL13): 40 pM

B6: CODV-Ig Batch ID 219 (IL4 × IL13 on HC; L1=3, L2=6, L3=3, L4=0) (bispecific antibody)
chain 1: not shown
chain 2: DIVLTQSPASLAVSLGQRATISCRASESVDSYGQSYMHWYQQKAGQPPKLLIYLASNLESGVPARFSGSGSRTDFTLTIDPVQAEDAATYYCQQNAEDSRTFGGGTKLEIKGGGDIQMTQSPASLSVSVGDTITLTCHASQNIDVWLSWFQQKPGNIPKLLIYKASNLHTGVPSRFSGSGSGTGFTLTISSLQPEDIATYYCQQAHSYPFTFGGGTKLEIKGGGGGGRTVAAPSVFIFPPSDEQLKSGTASVVCLLNNFYPREAKVQWKVDNALQSGNSQESVTEQDSKDSTYSLSSTLTLSKADYEKHKVYACEVTHQGLSSPVTKSFNRGEC
- Kd (recombinant human IL4): 8 pM
- Kd (recombinant human IL13): 71 pM

B7: CODV-Ig Batch ID 222 (IL4 × IL13 on HC; L1=6, L2=6, L3=3, L4=0) (bispecific antibody)
chain 1: not shown
chain 2: DIVLTQSPASLAVSLGQRATISCRASESVDSYGQSYMHWYQQKAGQPPKLLIYLASNLESGVPARFSGSGSRTDFTLTIDPVQAEDAATYYCQQNAEDSRTFGGGTKLEIKGGGGGGDIQMTQSPASLSVSVGDTITLTCHASQNIDVWLSWFQQKPGNIPKLLIYKASNLHTGVPSRFSGSGSGTGFTLTISSLQPEDIATYYCQQAHSYPFTFGGGTKLEIKGGGGGGRTVAAPSVFIFPPSDEQLKSGTASVVCLLNNFYPREAKVQWKVDNALQSGNSQESVTEQDSKDSTYSLSSTLTLSKADYEKHKVYACEVTHQGLSSPVTKSFNRGEC
- Kd (recombinant human IL4): 7 pM
- Kd (recombinant human IL13): 53 pM

B8: CODV-Ig Batch ID 225 (IL4 × IL13 on HC; L1=3, L2=6, L3=3, L4=2) (bispecific antibody)
chain 1: not shown
chain 2: DIVLTQSPASLAVSLGQRATISCRASESVDSYGQSYMHWYQQKAGQPPKLLIYLASNLESGVPARFSGSGSRTDFTLTIDPVQAEDAATYYCQQNAEDSRTFGGGTKLEIKGGGDIQMTQSPASLSVSVGDTITLTCHASQNIDVWLSWFQQKPGNIPKLLIYKASNLHTGVPSRFSGSGSGTGFTLTISSLQPEDIATYYCQQAHSYPFTFGGGTKLEIKGGGGGGRTVAAPSVFIFPPSDEQLKSGTASVVCLLNNFYPREAKVQWKVDNALQSGNSQESVTEQDSKDSTYSLSSTLTLSKADYEKHKVYACEVTHQGLSSPVTKSFNRGEC
- Kd (recombinant human IL4): 6 pM
- Kd (recombinant human IL13): 68 pM

B9: CODV-Ig Batch ID 228 (IL4 × IL13 on HC; L1=6, L2=6, L3=3, L4=2) (bispecific antibody)
chain 1: not shown
chain 2: DIVLTQSPASLAVSLGQRATISCRASESVDSYGQSYMHWYQQKAGQPPKLLIYLASNLESGVPARFSGSGSRTDFTLTIDPVQAEDAATYYCQQNAEDSRTFGGGTKLEIKGGGGGGDIQMTQSPASLSVSVGDTITLTCHASQNIDVWLSWFQQKPGNIPKLLIYKASNLHTGVPSRFSGSGSGTGFTLTISSLQPEDIATYYCQQAHSYPFTFGGGTKLEIKGGGGGGRTVAAPSVFIFPPSDEQLKSGTASVVCLLNNFYPREAKVQWKVDNALQSGNSQESVTEQDSKDSTYSLSSTLTLSKADYEKHKVYACEVTHQGLSSPVTKSFNRGEC
- Kd (recombinant human IL4): 7 pM
- Kd (recombinant human IL13): 44 pM

B10: CODV-Ig Batch ID 233 (IL4 × IL13 on HC; L1=7, L2=3, L3=5, L4=0) (bispecific antibody)
chain 1: not shown
chain 2: DIVLTQSPASLAVSLGQRATISCRASESVDSYGQSYMHWYQQKAGQPPKLLIYLASNLESGVPARFSGSGSRTDFTLTIDPVQAEDAATYYCQQNAEDSRTFGGGTKLEIKGGGGGGGDIQMTQSPASLSVSVGDTITLTCHASQNIDVWLSWFQQKPGNIPKLLIYKASNLHTGVPSRFSGSGSGTGFTLTISSLQPEDIATYYCQQAHSYPFTFGGGTKLEIKGGGRTVAAPSVFIFPPSDEQLKSGTASVVCLLNNFYPREAKVQWKVDNALQSGNSQESVTEQDSKDSTYSLSSTLTLSKADYEKHKVYACEVTHQGLSSPVTKSFNRGEC
- Kd (recombinant human IL4): 3 pM
- Kd (recombinant human IL13): 113 pM

B11: CODV-Ig Batch ID 237 (IL4 × IL13 on HC; L1=5, L2=3, L3=5, L4=2) (bispecific antibody)
chain 1: not shown
chain 2: DIVLTQSPASLAVSLGQRATISCRASESVDSYGQSYMHWYQQKAGQPPKLLIYLASNLESGVPARFSGSGSRTDFTLTIDPVQAEDAATYYCQQNAEDSRTFGGGTKLEIKGGGGGDIQMTQSPASLSVSVGDTITLTCHASQNIDVWLSWFQQKPGNIPKLLIYKASNLHTGVPSRFSGSGSGTGFTLTISSLQPEDIATYYCQQAHSYPFTFGGGTKLEIKGGGRTVAAPSVFIFPPSDEQLKSGTASVVCLLNNFYPREAKVQWKVDNALQSGNSQESVTEQDSKDSTYSLSSTLTLSKADYEKHKVYACEVTHQGLSSPVTKSFNRGEC
- Kd (recombinant human IL4): 8.1 pM
- Kd (recombinant human IL13): 101 pM

B12: CODV-Ig Batch ID 238 (IL4 × IL13 on HC; L1=5, L2=5, L3=5, L4=2) (bispecific antibody)
chain 1: not shown
chain 2: DIVLTQSPASLAVSLGQRATISCRASESVDSYGQSYMHWYQQKAGQPPKLLIYLASNLESGVPARFSGSGSRTDFTLTIDPVQAEDAATYYCQQNAEDSRTFGGGTKLEIKGGGGGDIQMTQSPASLSVSVGDTITLTCHASQNIDVWLSWFQQKPGNIPKLLIYKASNLHTGVPSRFSGSGSGTGFTLTISSLQPEDIATYYCQQAHSYPFTFGGGTKLEIKGGGGGRTVAAPSVFIFPPSDEQLKSGTASVVCLLNNFYPREAKVQWKVDNALQSGNSQESVTEQDSKDSTYSLSSTLTLSKADYEKHKVYACEVTHQGLSSPVTKSFNRGEC
- Kd (recombinant human IL4): 9.3 pM
- Kd (recombinant human IL13): 67.2 pM

B13: CODV-Ig Batch ID 240 (IL4 × IL13 on HC; L1=7, L2=5, L3=5, L4=2) (bispecific antibody)
chain 1: not shown
chain 2: DIVLTQSPASLAVSLGQRATISCRASESVDSYGQSYMHWYQQKAGQPPKLLIYLASNLESGVPARFSGSGSRTDFTLTIDPVQAEDAATYYCQQNAEDSRTFGGGTKLEIKGGGGGGGDIQMTQSPASLSVSVGDTITLTCHASQNIDVWLSWFQQKPGNIPKLLIYKASNLHTGVPSRFSGSGSGTGFTLTISSLQPEDIATYYCQQAHSYPFTFGGGTKLEIKGGGGGRTVAAPSVFIFPPSDEQLKSGTASVVCLLNNFYPREAKVQWKVDNALQSGNSQESVTEQDSKDSTYSLSSTLTLSKADYEKHKVYACEVTHQGLSSPVTKSFNRGEC
- Kd (recombinant human IL4): 4 pM
- Kd (recombinant human IL13): 65 pM

B14: CODV-Ig Batch ID 243 (IL4 × IL13 on HC; L1=3, L2=6, L3=6, L4=0) (bispecific antibody)
chain 1: not shown
chain 2: DIVLTQSPASLAVSLGQRATISCRASESVDSYGQSYMHWYQQKAGQPPKLLIYLASNLESGVPARFSGSGSRTDFTLTIDPVQAEDAATYYCQQNAEDSRTFGGGTKLEIKGGGDIQMTQSPASLSVSVGDTITLTCHASQNIDVWLSWFQQKPGNIPKLLIYKASNLHTGVPSRFSGSGSGTGFTLTISSLQPEDIATYYCQQAHSYPFTFGGGTKLEIKGGGGGGRTVAAPSVFIFPPSDEQLKSGTASVVCLLNNFYPREAKVQWKVDNALQSGNSQESVTEQDSKDSTYSLSSTLTLSKADYEKHKVYACEVTHQGLSSPVTKSFNRGEC
- Kd (recombinant human IL4): 5 pM
- Kd (recombinant human IL13): 50 pM

B15: CODV-Ig Batch ID 201 (IL4 × IL13 on HC; L1=5, L2=3, L3=1, L4=2) (bispecific antibody)
chain 1: not shown
chain 2: DIVLTQSPASLAVSLGQRATISCRASESVDSYGQSYMHWYQQKAGQPPKLLIYLASNLESGVPARFSGSGSRTDFTLTIDPVQAEDAATYYCQQNAEDSRTFGGGTKLEIKGGGGGDIQMTQSPASLSVSVGDTITLTCHASQNIDVWLSWFQQKPGNIPKLLIYKASNLHTGVPSRFSGSGSGTGFTLTISSLQPEDIATYYCQQAHSYPFTFGGGTKLEIKGGGRTVAAPSVFIFPPSDEQLKSGTASVVCLLNNFYPREAKVQWKVDNALQSGNSQESVTEQDSKDSTYSLSSTLTLSKADYEKHKVYACEVTHQGLSSPVTKSFNRGEC
- Kd (recombinant human IL4): 4 pM
- Kd (recombinant human IL13): 72 pM
